From the supplement of paper PMC5998384 come the findings set out here.

Data set [1] deals with HeLa Kyoto. Nature of the data set: solubility in G1/S (NP-40 vs SDS abundance) (log2 ratio); higher = more soluble. The conditions noted are these: cell cycle stage: G1/S.
Data set [2] concerns HeLa Kyoto. The experiment in a line: melting temperature (median over replicates), in situ; higher = more thermally stable.
Data set [3] has as its system HeLa Kyoto. The experiment in a line: solubility change mitosis vs G1/S (difference of NP-40 vs SDS log2 ratios) (log2 ratio difference); higher = more soluble in mitosis.
Data set [4] relates to HeLa Kyoto. The experiment in a line: thermal stability score vs G1/S (z-score of summed log2 fold changes over temperatures); higher = more thermally stable than in G1/S.
[5] abbreviates: cell cycle stage: early G1 (4.5 h after nocodazole release).
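Throughout, for melting temperature (median over replicates), in situ: HeLa Kyoto cells synchronized by double thymidine or nocodazole block, proteins quantified by TMT10plex mass spectrometry, three independent biological replicates.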
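Throughout, for solubility change mitosis vs G1/S (difference of NP-40 vs SDS log2 ratios): synchronized HeLa Kyoto cells (double thymidine block for G1/S, nocodazole release for mitosis), protein amounts in NP-40 versus SDS lysates quantified by mass spectrometry, three biological replicates.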
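Throughout, for solubility in G1/S (NP-40 vs SDS abundance): HeLa Kyoto cells arrested at G1/S by double thymidine block, proteins quantified by TMT10plex mass spectrometry in mild NP-40 versus SDS extracts, three biological replicates.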
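Throughout, for thermal stability score vs G1/S (z-score of summed log2 fold changes over temperatures): synchronized HeLa Kyoto cells, proteins quantified by TMT10plex mass spectrometry, three biological replicates, mitosis taken 0.5 h after nocodazole release, G1/S directly after double thymidine block.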

Regarding “MEGLVVAAGGDVSLHNFSARLWEQLVHFHVMRLTDSLFLWVGATPHLRNLAVAMCSRYDSIPVSTSLLGDTSDTTSTGLAQRLARKTNKQVFVSYNLQNTDSNFALLVENRIKEEMEAFPEKF [PSMG4]”, the “solubility in G1/S (log2)” value in data set [1] worked out at 0.14. Moreover, the melting temperature was determined as 57.5 °C in data set [2] (cell cycle stage: G1/S) and 54.1 °C in data set [2] (cell cycle stage: mitosis). The “solubility change mitosis (log2)” value in data set [3] was -0.0112. In addition, the thermal stability score is -0.165 in data set [4] (setting [5]) and -2.02 in data set [4] (cell cycle stage: mitosis).
As to “MANSGCKDVTGPDEESFLYFAYGSNLLTERIHLRNPSAAFFCVARLQDFKLDFGNSQGKTSQTWHGGIATIFQSPGDEVWGVVWKMNKSNLNSLDEQEGVKSGMYVVIEVKVATQEGKEITCRSYLMTNYESAPPSPQYKKIICMGAKENGLPLEYQEKLKAIEPNDYTGKVSEEIEDIIKKGETQTL [GGCT]”, the “solubility in G1/S (log2)” value in data set [1] came out at 0.302. Besides, the melting temperature in data set [2] (cell cycle stage: G1/S) is 55.4 °C; in data set [2] (cell cycle stage: mitosis), 55.3 °C. Besides, the “solubility change mitosis (log2)” value in data set [3] was -0.0992. For the same substance, the thermal stability score in data set [4] (setting [5]) is -0.47; in data set [4] (cell cycle stage: mitosis), -3.22.
Turning to “MCGRTSCHLPRDVLTRACAYQDRRGQQRLPEWRDPDKYCPSYNKSPQSNSPVLLSRLHFEKDADSSERIIAPMRWGLVPSWFKESDPSKLQFNTTNCRSDTVMEKRSFKVPLGKGRRCVVLADGFYEWQRCQGTNQRQPYFIYFPQIKTEKSGSIGAADSPENWEKVWDNWRLLTMAGIFDCWEPPEGGDVLYSYTIITVDSCKGLSDIHHRMPAILDGEEAVSKWLDFGEVSTQEALKLIHPTENITFHAVSSVVNNSRNNTPECLAPVDLVVKKELRASGSSQRMLQWLATKSPKKEDSKTPQKEESDVPQWSSQFLQKSPLPTKRGTAGLLEQWLKREKEEEPVAKRPYSQ [HMCES]”, the “solubility in G1/S (log2)” value in data set [1] worked out at 0.0685. Moreover, the figures for the melting temperature in data set [2] (cell cycle stage: G1/S) and in data set [2] (cell cycle stage: mitosis) were 48.6 °C and 48.4 °C, respectively. In addition, the “solubility change mitosis (log2)” value in data set [3] was -0.0383. For the same substance, the thermal stability score was determined as 1.11 in data set [4] (setting [5]) and 1.51 in data set [4] (cell cycle stage: mitosis).
Consider CASC5, for which, in data set [1], the “solubility in G1/S (log2)” value was -0.247. For the same substance, the melting temperature in data set [2] (cell cycle stage: G1/S) turned out to be 47.7 °C; in data set [2] (cell cycle stage: mitosis), 48.3 °C. For the same substance, the “solubility change mitosis (log2)” value in data set [3] was -0.0741. For the same substance, the thermal stability score came out at 1.3 in data set [4] (setting [5]) and 1.4 in data set [4] (cell cycle stage: mitosis).
Take “MPLLTQQIQDEDDQYSLVASLDNVRNLSTILKAIHFREHATCFATKNGIKVTVENAKCVQANAFIQAGIFQEFKVQEESVTFRINLTVLLDCLSIFGSSPMPGTLTALRMCYQGYGYPLMLFLEEGGVVTVCKINTQEPEETLDFDFCSTNVINKIILQSEGLREAFSELDMTSEVLQITMSPDKPYFRLSTFGNAGSSHLDYPKDSDLMEAFHCNQTQVNRYKISLLKPSTKALVLSCKVSIRTDNRGFLSLQYMIRNEDGQICFVEYYCCPDEEVPESES [RAD1]”: the “solubility in G1/S (log2)” value in data set [1] is -0.0871. The melting temperature in data set [2] (cell cycle stage: G1/S) was found to be 51.4 °C; in data set [2] (cell cycle stage: mitosis), 51.2 °C. Also, the “solubility change mitosis (log2)” value in data set [3] was -0.225. The thermal stability score in data set [4] (setting [5]) was found to be 2.13; in data set [4] (cell cycle stage: mitosis) it was 0.628.
As for “MFKNTFQSGFLSILYSIGSKPLQIWDKKVRNGHIKRITDNDIQSLVLEIEGTNVSTTYITCPADPKKTLGIKLPFLVMIIKNLKKYFTFEVQVLDDKNVRRRFRASNYQSTTRVKPFICTMPMRLDDGWNQIQFNLLDFTRRAYGTNYIETLRVQIHANCRIRRVYFSDRLYSEDELPAEFKLYLPVQNKAKQ [CFAP20]”, the “solubility in G1/S (log2)” value in data set [1] was -0.154. Also, the melting temperature is 50.9 °C in data set [2] (cell cycle stage: G1/S) and 51 °C in data set [2] (cell cycle stage: mitosis). Moreover, in data set [3], the “solubility change mitosis (log2)” value was -0.00426. Further, the thermal stability score was -0.133 in data set [4] (setting [5]) and 0.199 in data set [4] (cell cycle stage: mitosis).
For the substance “MGSLFRSETMCLAQLFLQSGTAYECLSALGEKGLVQFRDLNQNVSSFQRKFVGEVKRCEELERILVYLVQEINRADIPLPEGEASPPAPPLKQVLEMQEQLQKLEVELREVTKNKEKLRKNLLELIEYTHMLRVTKTFVKRNVEFEPTYEEFPSLESDSLLDYSCMQRLGAKLGFVSGLINQGKVEAFEKMLWRVCKGYTIVSYAELDESLEDPETGEVIKWYVFLISFWGEQIGHKVKKICDCYHCHVYPYPNTAEERREIQEGLNTRIQDLYTVLHKTEDYLRQVLCKAAESVYSRVIQVKKMKAIYHMLNMCSFDVTNKCLIAEVWCPEADLQDLRRALEEGSRESGATIPSFMNIIPTKETPPTRIRTNKFTEGFQNIVDAYGVGSYREVNPALFTIITFPFLFAVMFGDFGHGFVMFLFALLLVLNENHPRLNQSQEIMRMFFNGRYILLLMGLFSVYTGLIYNDCFSKSVNLFGSGWNVSAMYSSSHPPAEHKKMVLWNDSVVRHNSILQLDPSIPGVFRGPYPLGIDPIWNLATNRLTFLNSFKMKMSVILGIIHMTFGVILGIFNHLHFRKKFNIYLVSIPELLFMLCIFGYLIFMIFYKWLVFSAETSRVAPSILIEFINMFLFPASKTSGLYTGQEYVQRVLLVVTALSVPVLFLGKPLFLLWLHNGRSCFGVNRSGYTLIRKDSEEEVSLLGSQDIEEGNHQVEDGCREMACEEFNFGEILMTQVIHSIEYCLGCISNTASYLRLWALSLAHAQLSDVLWAMLMRVGLRVDTTYGVLLLLPVIALFAVLTIFILLIMEGLSAFLHAIRLHWVEFQNKFYVGAGTKFVPFSFSLLSSKFNNDDSVA [ATP6V0A2]”, the “solubility in G1/S (log2)” value in data set [1] was -0.303. Moreover, the melting temperature in data set [2] (cell cycle stage: G1/S) was found to be 55.8 °C; in data set [2] (cell cycle stage: mitosis), 56.5 °C. The “solubility change mitosis (log2)” value in data set [3] is -0.0408. Moreover, the thermal stability score in data set [4] (setting [5]) is -2.85; in data set [4] (cell cycle stage: mitosis), -3.91.
